Assay: protease stability score; higher = more stable; yeast display proteolysis, trypsin and chymotrypsin;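 note: relative to predicted unfolded state with 0 unfolded-like and 1 meaning tenfold more protease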

Sequence | protease stability score
SEIEELVERAEKEHLRTLMTGDWRLFEHNLDPNTKLELDYDGRKIERHGRRHMSHYLKELFKSLGIKHMHLEDSHIQGDKLELHLHFHIGDKTRNVIIIVRKVNGQWIVETLIVHEH | 0.829
SEIEEQVEEAYRLILEMLHTGDEHTMHELIDPHVRHRIDGQTYHGREFLIKWLVKLREDWGVEKISVKLKFITIIGDFALVVVDIHINGVKLKNHTLATKVNGRWRDHTVNIEHI | 0.637
SEIEERVYRVVETFWMALRTGDEETLDDLLDPNVKLDIDGKEFHGREKYKEFLELFKGVTVESVEFRDSKISGEKAIIHVHVTLRQGDKEEHKSTELVLYKINGRWIIEHVRLK | 2.21
SEIEETTRQASEFNLHSFRTGDEKMVHELADPHVRTDFNGKRLHGRESLTKELDKLLKDLGVDHVRIEHVNIYNGRVDIIMRVEVGDKEWKITIIAIKIDGKWKLESIEME | 0.132
SEIEHNLRLAEELLEKVTQTGNEELLHDLIDPNVRFYINGRDFVGREKNIKVFRSWGIDRVHFESEHIDIQGNKINFHGQINVNGKSMDTQIIAVKVNGRWLIKESWVD | 0.565
SEIEHVVKRAIKIFIEVLETGDWELMWRLLDPHVRIEVGNKEKHGRHTIEEMIRRVDHIHINERQIHDIEIQGDKVHLHIHLNVEERVGDKRLNFEFELHIIAEKVNGRWIVRSVTIK | 1.62
SEIEKDAKDALKWFVDTTRTGDEDLWLRLLDPHVRVIIGDKEYHGREESEKLIRHLSDLFGVDKVEVILNLERIHIQGNKIDVKGKLEVRQGNYTDDREIEMVMIKVNGRWFIKYEVIK | 1.18
SEIEKESEKIWKIWFHNLETGNWREIARLFDPHARWRELVDGREVNIVGREEVVRLLSENSEHLRLDDFRETSVRVIGDFVRSDVEMVGTVDGQHERRRVEVIIVTINGRLHSITITHL | 1.15
SEIEKLLIDWLEHMVRAHKTGDWQNLLNMLDPHTRLNINGQHNIGRDKLTHLIREEEDRFGVDNIELHLHLEDIDIQGEKVNMKVQRHVNVNGREYTDEVELIIVKINGRWLLESIHVH | 0.932
SEIEKMFHIALKLWVRTMKTGDFEDLLRLLDPNWRLEVNGRTHHGREELEHEIRELGIDQFHLHHIEHKEFLVQGEKITIDGRINGEFNGVQYNTRVIIIAKKINGRWVLHSEEIK | 1.37
SEIERDAREFLRVLLEHLHTGDEDDLARLADPHVLIDIDGREIVGRELFREIWHEMGVNHTEYKDLDIQGNKLHIHINVNVNGKVRSLRIVVRKVNGRWFIEREHYE | 1.52
SEIERDVHELIKEVSELTHTGNEEHSKMLLDPNYRVEIGDKTIHGRHLVSHWIKQMRSDITVEIREVRLIDGRLLADIRFVVRIRFDGVELHIEERRVLFWLKVDGQWIIESQRVH | 0.827
SEIERESKIFSKIEKHVWETGDEKILSEMADPHARIEIGDKEHHGREEFEKVAHEIVEFFPNMRFRVEHMDVQGNKVDLDTRLHFENHSHRYQVISLKFNGRWLIKSVKIE | 1.08
SEIERLLEEWMELVIHSWLTGNEELFTRMFDPNTRLEVEVGDKHDRHIGREEANKWMETLRREIRIEDIEIKEVRIFDGVAHNDGTLHRRVGDKKDYVRVRLILIIYNGKIHHVKIIVR | 1.03
SEIETILEKVLRELEHRKETGDEESFERYADPNVRMSVDGKDIHGREEVLRSWLETWKLMGVDHSHLHVTDLRIIGNKLEIDGIVRFNVGDKIVHRHSRLIMLKINGRWMIKQVEIH | 1.22
SEIHDIARKMMNIVRRLLHTGDEDKWLDLADPDVRIHINGRDFIGRELWVQIYRELGVDHLDLKIERVEIVDGVIILHGTLDIHYGDKTHEIEINIFIRKVNGRWRLKLEHHK | 1.71
SEIHDLITTMSRLFWDVIRTGDFEALEKLLDPHTRFEFLIGDKTEEYVGRHNVVRAIMDIWERLGIDHMHLKNVRYQGEKSDIDTEMHFDGRTFDTKIIIVVIDGKLHNVSIEFR | 1.39
SEIHELAILVLKWLLDSMSTGDEESLRRLLDPHTRIHIDGKDLHGRHFLERILQEIRHEVKEYHIRDVRDINGVVTLDAHVRGNEYFDGRNHEHRTDTRLIIDKINGRWRIRELKFE | 1.12
SEIHRDVEEFMKRFDRDLETGDEKILEKLVDPDVKTIVNGKIFHGRETFIKLMLTIFKEMRNEHVELQSLEVQGNKAHAETRVRLTIGDWTFYLRTELHLEKYDGRWRFHSVTIE | 1.93
SEIKEEMDEVSELWQRALETGDEHEVLKLMDPHARIDFDGVDHVGWREVTKSLKHMRIDHIKIRHITVIGNKIDIDGEVNMTVNGQERQETVHIELIVVNGRIRHIRIHLV | 0.396
